Measurements taken from patent publication US20170101451.

How the values were obtained:
[1] = tested on: stromal cell derived factor-1 (SDF-1alpha), unmutated
SDF-1 17AA = tested on: T1, SDF-1 17AA
T1 sequence: KPVSLSYRCPCRFFESH

Chain of matrix metalloproteinase-2 (MMP-2) (P08253 110-660): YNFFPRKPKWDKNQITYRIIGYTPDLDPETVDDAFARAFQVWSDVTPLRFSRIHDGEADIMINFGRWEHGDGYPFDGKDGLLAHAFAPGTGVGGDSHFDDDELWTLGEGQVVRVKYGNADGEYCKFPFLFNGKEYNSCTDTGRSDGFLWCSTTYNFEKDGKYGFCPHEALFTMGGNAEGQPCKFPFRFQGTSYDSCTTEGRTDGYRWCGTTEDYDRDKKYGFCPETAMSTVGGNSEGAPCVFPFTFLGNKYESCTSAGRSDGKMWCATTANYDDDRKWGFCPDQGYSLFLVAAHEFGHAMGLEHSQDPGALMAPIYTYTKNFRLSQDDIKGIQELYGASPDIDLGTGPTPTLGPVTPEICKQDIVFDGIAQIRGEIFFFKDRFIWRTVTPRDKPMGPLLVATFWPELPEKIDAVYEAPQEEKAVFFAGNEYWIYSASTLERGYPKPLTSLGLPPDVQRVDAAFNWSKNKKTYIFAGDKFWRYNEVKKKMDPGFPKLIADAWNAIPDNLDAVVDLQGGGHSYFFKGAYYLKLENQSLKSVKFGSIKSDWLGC
Chain of SDF-1(L5W) (chain, as listed by the source): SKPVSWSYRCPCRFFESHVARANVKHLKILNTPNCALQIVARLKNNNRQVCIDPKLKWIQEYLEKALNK
Chain of SDF-1(S4V) (chain, as listed by the source): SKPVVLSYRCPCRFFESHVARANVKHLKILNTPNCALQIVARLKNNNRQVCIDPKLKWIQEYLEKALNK
Chain of SDF-1(L5P) (chain, as listed by the source): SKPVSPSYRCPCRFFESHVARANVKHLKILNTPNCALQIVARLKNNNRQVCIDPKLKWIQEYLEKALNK
Chain of SDF-1(L5E) (chain, as listed by the source): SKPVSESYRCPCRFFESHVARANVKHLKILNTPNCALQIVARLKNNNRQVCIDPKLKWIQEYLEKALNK
Chain of stromal cell derived factor-1 (SDF-1alpha), unmutated (chain, as listed by the source, change not shown): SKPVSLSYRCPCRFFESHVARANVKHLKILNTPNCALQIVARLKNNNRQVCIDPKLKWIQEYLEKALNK

With matrix metalloproteinase-2 (MMP-2) as the substance, how does the “cleavage by MMP-2: SDS-PAGE positional shift after one hour incubation” value [1] read?
The value was “unlike SDF-1, the mutants did not undergo a positional shift indicative of cleavage”.

What about the “cleavage by MMP-2: SDS-PAGE, 2 nmole peptide incubated with MMP-2 for 1 h at RT” value (SDF-1 17AA) of the same substance?
The value was “showing cleavage of SDF-1 17AA”.

What about the “cleavage by MMP-2: SDS-PAGE positional shift after one hour incubation” value (SDF-1(S4V)) of the same substance?
The value was “unlike SDF-1, the mutants did not undergo a positional shift indicative of cleavage”.

What about the “cleavage by MMP-2: SDS-PAGE positional shift after one hour incubation” value (SDF-1(L5W)) of the same substance?
Its value is “unlike SDF-1, the mutants did not undergo a positional shift indicative of cleavage”.

And the “cleavage by MMP-2: SDS-PAGE positional shift after one hour incubation” value (SDF-1(L5P))?
The value was “unlike SDF-1, the mutants did not undergo a positional shift indicative of cleavage”.

What about the “cleavage by MMP-2: SDS-PAGE positional shift after one hour incubation” value (SDF-1(L5E)) of the same substance?
Its value is “unlike SDF-1, the mutants did not undergo a positional shift indicative of cleavage”.
